In paper PMC9037348:

Molecular target: GFP-CaV1.1e (embryonic splice variant of CaV1.1, lacking exon 29)

shift of the half-maximal potential of steady-state inactivation of CaV1.1e calcium currents to hyperpolarizing potentials on coexpression of γ1 (whole-cell patch clamp, HEK-TetOn-STAC3 cells): 13.7 mV
B1: γ1 subunit of the skeletal muscle voltage-gated calcium channel (mouse γ1) (natural protein)
chain: MSQTKTAKVRVTLFFILVGGVLAMVAVVTDHWAVLSPHLEHHNETCEAAHFGLWRICTARVAVHNKDKSCEHVTPSGEKNCSYFRHFNPGESSEIFEFTTQKEYSISAAAIAIFSLGFIIVGSICAFLSFGNKRDYLLRPASMFYAFAGLCLIVSVEVMRQSVKRMIDSEDTVWIEHYYSWSFACACAAFILLFLGGLFLLLFSLPRMPQNPWESCMDAEPEH
